Experimental data taken from the Human Domainome abundance scans (Beltran et al. 2025).
± gives the uncertainty stated by the source.

B1: RNA-binding E3 ubiquitin-protein ligase MEX3C, residues 325 to 391; numbered along this chain, Q5U5Q3 (parent)
chain: GQTTVQVRVPYRVVGLVVGPKGATIKRIQQQTHTYIVTPSRDKEPVFEVTGMPENVDRAREEIEMHI

Variants of: B1
Experiment: abundance fitness (aPCA) (normalised: wild type 0, dead -1); higher = more abundant; growth selection in yeast, the domain comes from the species named
Details: Homo sapiens

Variant	abundance fitness
GQTTVTVRVPYRVVGLVVGPKGATIKRIQQQTHTYIVTPSRDKEPVFEVTGMPENVDRAREEIEMHI [Q6T]	-0.247 ± 0.16
GQTTVDVRVPYRVVGLVVGPKGATIKRIQQQTHTYIVTPSRDKEPVFEVTGMPENVDRAREEIEMHI [Q6D]	-0.657 ± 0.25
GQTTVYVRVPYRVVGLVVGPKGATIKRIQQQTHTYIVTPSRDKEPVFEVTGMPENVDRAREEIEMHI [Q6Y]	0.269 ± 0.22
GQTTVEVRVPYRVVGLVVGPKGATIKRIQQQTHTYIVTPSRDKEPVFEVTGMPENVDRAREEIEMHI [Q6E]	-0.218 ± 0.18
GQTTVAVRVPYRVVGLVVGPKGATIKRIQQQTHTYIVTPSRDKEPVFEVTGMPENVDRAREEIEMHI [Q6A]	-0.1 ± 0.072
GQTTVLVRVPYRVVGLVVGPKGATIKRIQQQTHTYIVTPSRDKEPVFEVTGMPENVDRAREEIEMHI [Q6L]	-0.022 ± 0.097
GQTTVWVRVPYRVVGLVVGPKGATIKRIQQQTHTYIVTPSRDKEPVFEVTGMPENVDRAREEIEMHI [Q6W]	-0.513 ± 0.2
GQTTVVVRVPYRVVGLVVGPKGATIKRIQQQTHTYIVTPSRDKEPVFEVTGMPENVDRAREEIEMHI [Q6V]	0.071 ± 0.14
GQTTVSVRVPYRVVGLVVGPKGATIKRIQQQTHTYIVTPSRDKEPVFEVTGMPENVDRAREEIEMHI [Q6S]	-0.056 ± 0.074
GQTTVGVRVPYRVVGLVVGPKGATIKRIQQQTHTYIVTPSRDKEPVFEVTGMPENVDRAREEIEMHI [Q6G]	-0.16 ± 0.055
GQTTVPVRVPYRVVGLVVGPKGATIKRIQQQTHTYIVTPSRDKEPVFEVTGMPENVDRAREEIEMHI [Q6P]	-0.3 ± 0.15
GQTTVMVRVPYRVVGLVVGPKGATIKRIQQQTHTYIVTPSRDKEPVFEVTGMPENVDRAREEIEMHI [Q6M]	-0.151 ± 0.16
GQTTVCVRVPYRVVGLVVGPKGATIKRIQQQTHTYIVTPSRDKEPVFEVTGMPENVDRAREEIEMHI [Q6C]	-0.028 ± 0.21
GQTTVRVRVPYRVVGLVVGPKGATIKRIQQQTHTYIVTPSRDKEPVFEVTGMPENVDRAREEIEMHI [Q6R]	0.159 ± 0.058
GQTTVHVRVPYRVVGLVVGPKGATIKRIQQQTHTYIVTPSRDKEPVFEVTGMPENVDRAREEIEMHI [Q6H]	-0.099 ± 0.28
GQYTVQVRVPYRVVGLVVGPKGATIKRIQQQTHTYIVTPSRDKEPVFEVTGMPENVDRAREEIEMHI [T3Y]	-0.296 ± 0.18
GQWTVQVRVPYRVVGLVVGPKGATIKRIQQQTHTYIVTPSRDKEPVFEVTGMPENVDRAREEIEMHI [T3W]	-1.1 ± 0.23
GQTWVQVRVPYRVVGLVVGPKGATIKRIQQQTHTYIVTPSRDKEPVFEVTGMPENVDRAREEIEMHI [T4W]	-0.832 ± 0.19
GQTKVQVRVPYRVVGLVVGPKGATIKRIQQQTHTYIVTPSRDKEPVFEVTGMPENVDRAREEIEMHI [T4K]	-0.414 ± 0.072
GQTLVQVRVPYRVVGLVVGPKGATIKRIQQQTHTYIVTPSRDKEPVFEVTGMPENVDRAREEIEMHI [T4L]	-0.756 ± 0.088

Variant	abundance fitness
GQTMVQVRVPYRVVGLVVGPKGATIKRIQQQTHTYIVTPSRDKEPVFEVTGMPENVDRAREEIEMHI [T4M]	-0.751 ± 0.23
GQTEVQVRVPYRVVGLVVGPKGATIKRIQQQTHTYIVTPSRDKEPVFEVTGMPENVDRAREEIEMHI [T4E]	-1.06 ± 0.24
GQTVVQVRVPYRVVGLVVGPKGATIKRIQQQTHTYIVTPSRDKEPVFEVTGMPENVDRAREEIEMHI [T4V]	-0.477 ± 0.082
GQTCVQVRVPYRVVGLVVGPKGATIKRIQQQTHTYIVTPSRDKEPVFEVTGMPENVDRAREEIEMHI [T4C]	-0.718 ± 0.2
GQTFVQVRVPYRVVGLVVGPKGATIKRIQQQTHTYIVTPSRDKEPVFEVTGMPENVDRAREEIEMHI [T4F]	-0.881 ± 0.26
GQTGVQVRVPYRVVGLVVGPKGATIKRIQQQTHTYIVTPSRDKEPVFEVTGMPENVDRAREEIEMHI [T4G]	-0.646 ± 0.13
GQTDVQVRVPYRVVGLVVGPKGATIKRIQQQTHTYIVTPSRDKEPVFEVTGMPENVDRAREEIEMHI [T4D]	-0.631 ± 0.14
GQTRVQVRVPYRVVGLVVGPKGATIKRIQQQTHTYIVTPSRDKEPVFEVTGMPENVDRAREEIEMHI [T4R]	-0.425 ± 0.078
GQTSVQVRVPYRVVGLVVGPKGATIKRIQQQTHTYIVTPSRDKEPVFEVTGMPENVDRAREEIEMHI [T4S]	-0.757 ± 0.13
GQTAVQVRVPYRVVGLVVGPKGATIKRIQQQTHTYIVTPSRDKEPVFEVTGMPENVDRAREEIEMHI [T4A]	-0.523 ± 0.12
GQTNVQVRVPYRVVGLVVGPKGATIKRIQQQTHTYIVTPSRDKEPVFEVTGMPENVDRAREEIEMHI [T4N]	-0.812 ± 0.22
GQTHVQVRVPYRVVGLVVGPKGATIKRIQQQTHTYIVTPSRDKEPVFEVTGMPENVDRAREEIEMHI [T4H]	-0.38 ± 0.12
GQTIVQVRVPYRVVGLVVGPKGATIKRIQQQTHTYIVTPSRDKEPVFEVTGMPENVDRAREEIEMHI [T4I]	-0.622 ± 0.18
GQTTVQFRVPYRVVGLVVGPKGATIKRIQQQTHTYIVTPSRDKEPVFEVTGMPENVDRAREEIEMHI [V7F]	-0.124 ± 0.17
GQTTVQSRVPYRVVGLVVGPKGATIKRIQQQTHTYIVTPSRDKEPVFEVTGMPENVDRAREEIEMHI [V7S]	-0.516 ± 0.12
GQTTVQGRVPYRVVGLVVGPKGATIKRIQQQTHTYIVTPSRDKEPVFEVTGMPENVDRAREEIEMHI [V7G]	-0.809 ± 0.069
GQTTVQHRVPYRVVGLVVGPKGATIKRIQQQTHTYIVTPSRDKEPVFEVTGMPENVDRAREEIEMHI [V7H]	-0.603 ± 0.12
GQTTVQNRVPYRVVGLVVGPKGATIKRIQQQTHTYIVTPSRDKEPVFEVTGMPENVDRAREEIEMHI [V7N]	-0.987 ± 0.3
GQTTVQERVPYRVVGLVVGPKGATIKRIQQQTHTYIVTPSRDKEPVFEVTGMPENVDRAREEIEMHI [V7E]	-0.39 ± 0.11
GQTTVQPRVPYRVVGLVVGPKGATIKRIQQQTHTYIVTPSRDKEPVFEVTGMPENVDRAREEIEMHI [V7P]	-0.567 ± 0.17
